# Experiment: Thermostability of A2aR and mutants (ligand binding after or during heating)
# Format: physicochemical
# Conditions: Ligand(−) format, binding after the heating step
# How it was run: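 Thermostability of wild-type and site-directed mutant A2aR assessed by agonist or antagonist binding either after heating (ligand(−) format) or during heating with ligand present (ligand(+) format); stability expressed as Tm.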
Molecule,thermostability assayed with 3H-ZM241385 (antagonist),thermostability measured with 3H-NECA (agonist)
"G114 A: A2aR point mutant (protein, UniProt P29274 1-412, looked up, variant G114A) Adenosine receptor A2a: MPIMGSSVYITVELAIAVLAILGNVLVCWAVWLNSNLQNVTNYFVVSLAAADIAVGVLAIPFAITISTGFCAACHGCLFIACFVLVLTQSSIFSLLAIAIDRYIAIRIPLRYNALVTGTRAKGIIAICWVLSFAIGLTPMLGWNNCGQPKEGKNHSQGCGEGQVACLFEDVVPMNYMVYFNFFACVLVPLLLMLGVYLRIFLAARRQLKQMESQPLPGERARSTLQKEVHAAKSLAIIVGLFALCWLPLHIINCFTFFCPDCSHAPLWLMYLAIVLSHTNSVVNPFIYAYRIREFRQTFRKIIRSHVLRQQEPFKAAGTSARVLAAHGSDGEQVSLRLNGHPPGVWANGSAPHPERRPNGYALGLVSGGSAQESQGNTGLPDVELLSHELKGVCPEPPGLDDPLAQDGAGVS",improved thermostability,improved thermostability
"T119A: A2aR point mutant (protein, UniProt P29274 1-412, looked up, variant T119A) Adenosine receptor A2a: MPIMGSSVYITVELAIAVLAILGNVLVCWAVWLNSNLQNVTNYFVVSLAAADIAVGVLAIPFAITISTGFCAACHGCLFIACFVLVLTQSSIFSLLAIAIDRYIAIRIPLRYNGLVTGARAKGIIAICWVLSFAIGLTPMLGWNNCGQPKEGKNHSQGCGEGQVACLFEDVVPMNYMVYFNFFACVLVPLLLMLGVYLRIFLAARRQLKQMESQPLPGERARSTLQKEVHAAKSLAIIVGLFALCWLPLHIINCFTFFCPDCSHAPLWLMYLAIVLSHTNSVVNPFIYAYRIREFRQTFRKIIRSHVLRQQEPFKAAGTSARVLAAHGSDGEQVSLRLNGHPPGVWANGSAPHPERRPNGYALGLVSGGSAQESQGNTGLPDVELLSHELKGVCPEPPGLDDPLAQDGAGVS",improved thermostability,–
"A204L: A2aR point mutant (protein, UniProt P29274 1-412, looked up, variant A204L) Adenosine receptor A2a: MPIMGSSVYITVELAIAVLAILGNVLVCWAVWLNSNLQNVTNYFVVSLAAADIAVGVLAIPFAITISTGFCAACHGCLFIACFVLVLTQSSIFSLLAIAIDRYIAIRIPLRYNGLVTGTRAKGIIAICWVLSFAIGLTPMLGWNNCGQPKEGKNHSQGCGEGQVACLFEDVVPMNYMVYFNFFACVLVPLLLMLGVYLRIFLALRRQLKQMESQPLPGERARSTLQKEVHAAKSLAIIVGLFALCWLPLHIINCFTFFCPDCSHAPLWLMYLAIVLSHTNSVVNPFIYAYRIREFRQTFRKIIRSHVLRQQEPFKAAGTSARVLAAHGSDGEQVSLRLNGHPPGVWANGSAPHPERRPNGYALGLVSGGSAQESQGNTGLPDVELLSHELKGVCPEPPGLDDPLAQDGAGVS",improved thermostability,–
"G152A: A2aR point mutant (protein, UniProt P29274 1-412, looked up, variant G152A) Adenosine receptor A2a: MPIMGSSVYITVELAIAVLAILGNVLVCWAVWLNSNLQNVTNYFVVSLAAADIAVGVLAIPFAITISTGFCAACHGCLFIACFVLVLTQSSIFSLLAIAIDRYIAIRIPLRYNGLVTGTRAKGIIAICWVLSFAIGLTPMLGWNNCGQPKEAKNHSQGCGEGQVACLFEDVVPMNYMVYFNFFACVLVPLLLMLGVYLRIFLAARRQLKQMESQPLPGERARSTLQKEVHAAKSLAIIVGLFALCWLPLHIINCFTFFCPDCSHAPLWLMYLAIVLSHTNSVVNPFIYAYRIREFRQTFRKIIRSHVLRQQEPFKAAGTSARVLAAHGSDGEQVSLRLNGHPPGVWANGSAPHPERRPNGYALGLVSGGSAQESQGNTGLPDVELLSHELKGVCPEPPGLDDPLAQDGAGVS",improved thermostability,–
"L235A: A2aR point mutant (protein, UniProt P29274 1-412, looked up, variant L235A) Adenosine receptor A2a: MPIMGSSVYITVELAIAVLAILGNVLVCWAVWLNSNLQNVTNYFVVSLAAADIAVGVLAIPFAITISTGFCAACHGCLFIACFVLVLTQSSIFSLLAIAIDRYIAIRIPLRYNGLVTGTRAKGIIAICWVLSFAIGLTPMLGWNNCGQPKEGKNHSQGCGEGQVACLFEDVVPMNYMVYFNFFACVLVPLLLMLGVYLRIFLAARRQLKQMESQPLPGERARSTLQKEVHAAKSAAIIVGLFALCWLPLHIINCFTFFCPDCSHAPLWLMYLAIVLSHTNSVVNPFIYAYRIREFRQTFRKIIRSHVLRQQEPFKAAGTSARVLAAHGSDGEQVSLRLNGHPPGVWANGSAPHPERRPNGYALGLVSGGSAQESQGNTGLPDVELLSHELKGVCPEPPGLDDPLAQDGAGVS",improved thermostability,–
"G123A: A2aR point mutant (protein, UniProt P29274 1-412, looked up, variant G123A) Adenosine receptor A2a: MPIMGSSVYITVELAIAVLAILGNVLVCWAVWLNSNLQNVTNYFVVSLAAADIAVGVLAIPFAITISTGFCAACHGCLFIACFVLVLTQSSIFSLLAIAIDRYIAIRIPLRYNGLVTGTRAKAIIAICWVLSFAIGLTPMLGWNNCGQPKEGKNHSQGCGEGQVACLFEDVVPMNYMVYFNFFACVLVPLLLMLGVYLRIFLAARRQLKQMESQPLPGERARSTLQKEVHAAKSLAIIVGLFALCWLPLHIINCFTFFCPDCSHAPLWLMYLAIVLSHTNSVVNPFIYAYRIREFRQTFRKIIRSHVLRQQEPFKAAGTSARVLAAHGSDGEQVSLRLNGHPPGVWANGSAPHPERRPNGYALGLVSGGSAQESQGNTGLPDVELLSHELKGVCPEPPGLDDPLAQDGAGVS",improved thermostability,–
"E151A: A2aR point mutant (protein, UniProt P29274 1-412, looked up, variant E151A) Adenosine receptor A2a: MPIMGSSVYITVELAIAVLAILGNVLVCWAVWLNSNLQNVTNYFVVSLAAADIAVGVLAIPFAITISTGFCAACHGCLFIACFVLVLTQSSIFSLLAIAIDRYIAIRIPLRYNGLVTGTRAKGIIAICWVLSFAIGLTPMLGWNNCGQPKAGKNHSQGCGEGQVACLFEDVVPMNYMVYFNFFACVLVPLLLMLGVYLRIFLAARRQLKQMESQPLPGERARSTLQKEVHAAKSLAIIVGLFALCWLPLHIINCFTFFCPDCSHAPLWLMYLAIVLSHTNSVVNPFIYAYRIREFRQTFRKIIRSHVLRQQEPFKAAGTSARVLAAHGSDGEQVSLRLNGHPPGVWANGSAPHPERRPNGYALGLVSGGSAQESQGNTGLPDVELLSHELKGVCPEPPGLDDPLAQDGAGVS",improved thermostability,–
"A231L: A2aR point mutant (protein, UniProt P29274 1-412, looked up, variant A231L) Adenosine receptor A2a: MPIMGSSVYITVELAIAVLAILGNVLVCWAVWLNSNLQNVTNYFVVSLAAADIAVGVLAIPFAITISTGFCAACHGCLFIACFVLVLTQSSIFSLLAIAIDRYIAIRIPLRYNGLVTGTRAKGIIAICWVLSFAIGLTPMLGWNNCGQPKEGKNHSQGCGEGQVACLFEDVVPMNYMVYFNFFACVLVPLLLMLGVYLRIFLAARRQLKQMESQPLPGERARSTLQKEVHLAKSLAIIVGLFALCWLPLHIINCFTFFCPDCSHAPLWLMYLAIVLSHTNSVVNPFIYAYRIREFRQTFRKIIRSHVLRQQEPFKAAGTSARVLAAHGSDGEQVSLRLNGHPPGVWANGSAPHPERRPNGYALGLVSGGSAQESQGNTGLPDVELLSHELKGVCPEPPGLDDPLAQDGAGVS",improved thermostability,–
"V239A: A2aR point mutant (protein, UniProt P29274 1-412, looked up, variant V239A) Adenosine receptor A2a: MPIMGSSVYITVELAIAVLAILGNVLVCWAVWLNSNLQNVTNYFVVSLAAADIAVGVLAIPFAITISTGFCAACHGCLFIACFVLVLTQSSIFSLLAIAIDRYIAIRIPLRYNGLVTGTRAKGIIAICWVLSFAIGLTPMLGWNNCGQPKEGKNHSQGCGEGQVACLFEDVVPMNYMVYFNFFACVLVPLLLMLGVYLRIFLAARRQLKQMESQPLPGERARSTLQKEVHAAKSLAIIAGLFALCWLPLHIINCFTFFCPDCSHAPLWLMYLAIVLSHTNSVVNPFIYAYRIREFRQTFRKIIRSHVLRQQEPFKAAGTSARVLAAHGSDGEQVSLRLNGHPPGVWANGSAPHPERRPNGYALGLVSGGSAQESQGNTGLPDVELLSHELKGVCPEPPGLDDPLAQDGAGVS",improved thermostability,–
"P149A: A2aR point mutant (protein, UniProt P29274 1-412, looked up, variant P149A) Adenosine receptor A2a: MPIMGSSVYITVELAIAVLAILGNVLVCWAVWLNSNLQNVTNYFVVSLAAADIAVGVLAIPFAITISTGFCAACHGCLFIACFVLVLTQSSIFSLLAIAIDRYIAIRIPLRYNGLVTGTRAKGIIAICWVLSFAIGLTPMLGWNNCGQAKEGKNHSQGCGEGQVACLFEDVVPMNYMVYFNFFACVLVPLLLMLGVYLRIFLAARRQLKQMESQPLPGERARSTLQKEVHAAKSLAIIVGLFALCWLPLHIINCFTFFCPDCSHAPLWLMYLAIVLSHTNSVVNPFIYAYRIREFRQTFRKIIRSHVLRQQEPFKAAGTSARVLAAHGSDGEQVSLRLNGHPPGVWANGSAPHPERRPNGYALGLVSGGSAQESQGNTGLPDVELLSHELKGVCPEPPGLDDPLAQDGAGVS",improved thermostability,–
"K122A: A2aR point mutant (protein, UniProt P29274 1-412, looked up, variant K122A) Adenosine receptor A2a: MPIMGSSVYITVELAIAVLAILGNVLVCWAVWLNSNLQNVTNYFVVSLAAADIAVGVLAIPFAITISTGFCAACHGCLFIACFVLVLTQSSIFSLLAIAIDRYIAIRIPLRYNGLVTGTRAAGIIAICWVLSFAIGLTPMLGWNNCGQPKEGKNHSQGCGEGQVACLFEDVVPMNYMVYFNFFACVLVPLLLMLGVYLRIFLAARRQLKQMESQPLPGERARSTLQKEVHAAKSLAIIVGLFALCWLPLHIINCFTFFCPDCSHAPLWLMYLAIVLSHTNSVVNPFIYAYRIREFRQTFRKIIRSHVLRQQEPFKAAGTSARVLAAHGSDGEQVSLRLNGHPPGVWANGSAPHPERRPNGYALGLVSGGSAQESQGNTGLPDVELLSHELKGVCPEPPGLDDPLAQDGAGVS",improved thermostability,–

# Same assay, conditions: ZM241385 bound
row,Molecule,Tm [°C]
1,"Rant19: A2aR mutant A54L, T88A, V239A+A204L (protein, UniProt P29274 1-412, looked up, variant A54L T88A V239A A204L) Adenosine receptor A2a: MPIMGSSVYITVELAIAVLAILGNVLVCWAVWLNSNLQNVTNYFVVSLAAADILVGVLAIPFAITISTGFCAACHGCLFIACFVLVLAQSSIFSLLAIAIDRYIAIRIPLRYNGLVTGTRAKGIIAICWVLSFAIGLTPMLGWNNCGQPKEGKNHSQGCGEGQVACLFEDVVPMNYMVYFNFFACVLVPLLLMLGVYLRIFLALRRQLKQMESQPLPGERARSTLQKEVHAAKSLAIIAGLFALCWLPLHIINCFTFFCPDCSHAPLWLMYLAIVLSHTNSVVNPFIYAYRIREFRQTFRKIIRSHVLRQQEPFKAAGTSARVLAAHGSDGEQVSLRLNGHPPGVWANGSAPHPERRPNGYALGLVSGGSAQESQGNTGLPDVELLSHELKGVCPEPPGLDDPLAQDGAGVS",47

# Source: patent US8785135B2, “Mutant G-protein coupled receptors and methods for selecting them” (Heptares Therapeutics Limited, priority 2007, dated 2014)
